This note sets out measurements from publication PMC11743126, “CK2α-mediated phosphorylation of DUB3 promotes YAP1 stability and oncogenic functions” (Cell Death & Disease, 2025).

For this experiment, the target named is T1, His-DUB3 (UniProt Q6R6M4 1-530).
T1 construct: deubiquitinase DUB3 (USP17L2) cloned into pET30a; also called USP17L2; source: E. coli BL21, purified
T1 sequence (looked up): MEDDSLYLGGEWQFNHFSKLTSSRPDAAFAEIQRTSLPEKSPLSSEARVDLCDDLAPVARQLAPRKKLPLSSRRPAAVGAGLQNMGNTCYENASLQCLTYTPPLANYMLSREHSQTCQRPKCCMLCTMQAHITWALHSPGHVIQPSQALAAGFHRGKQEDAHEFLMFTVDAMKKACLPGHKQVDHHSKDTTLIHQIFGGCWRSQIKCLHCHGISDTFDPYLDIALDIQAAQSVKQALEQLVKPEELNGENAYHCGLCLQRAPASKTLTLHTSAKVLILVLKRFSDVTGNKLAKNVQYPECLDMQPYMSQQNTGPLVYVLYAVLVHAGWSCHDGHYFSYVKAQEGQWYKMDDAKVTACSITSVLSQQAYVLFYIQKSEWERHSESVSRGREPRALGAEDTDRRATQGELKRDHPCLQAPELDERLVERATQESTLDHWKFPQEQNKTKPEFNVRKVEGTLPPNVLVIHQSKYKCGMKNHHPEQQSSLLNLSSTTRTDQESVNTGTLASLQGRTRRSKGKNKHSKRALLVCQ
Description: pull-down; GST or GST-fusion protein on Pierce Glutathione agarose, incubated with purified His-tagged protein at 4 °C for 2 h; four washes; immunoblotting. Conditions: both partners purified.

B1: GST-CK2α (Casein kinase II alpha, catalytic subunit) (enzyme, UniProt P68400 1-391, looked up)
chain: MSGPVPSRARVYTDVNTHRPREYWDYESHVVEWGNQDDYQLVRKLGRGKYSEVFEAINITNNEKVVVKILKPVKKKKIKREIKILENLRGGPNIITLADIVKDPVSRTPALVFEHVNNTDFKQLYQTLTDYDIRFYMYEILKALDYCHSMGIMHRDVKPHNVMIDHEHRKLRLIDWGLAEFYHPGQEYNVRVASRYFKGPELLVDYQMYDYSLDMWSLGCMLASMIFRKEPFFHGHDNYDQLVRIAKVLGTEDLYDYIDKYNIELDPRFNDILGRHSRKRWERFVHSENQHLVSPEALDFLDKLLRYDHQSRLTAREAMEHPYFYTVVKDQARMGSSSMPGGSTPVSSANMMSGISSVPTPSPLGPLAGSPVIAAANPLGMPVPAAAGAQQ
notes: Casein kinase II alpha (CK2α), catalytic subunit of CK2, cloned into pGEX4T-1; source: E. coli BL21, IPTG induced, pulled down on Pierce Glutathione agarose
For the molecule B1, the binding result is “binds”.
